The source of these data is article PMC9416547 (Nucleic Acid Therapeutics, 2022).

Assay [1] concerns the target T1, MBP-tagged full-length NAT10 (UniProt Q9H0A0 1-1025).
T1 sequence (looked up): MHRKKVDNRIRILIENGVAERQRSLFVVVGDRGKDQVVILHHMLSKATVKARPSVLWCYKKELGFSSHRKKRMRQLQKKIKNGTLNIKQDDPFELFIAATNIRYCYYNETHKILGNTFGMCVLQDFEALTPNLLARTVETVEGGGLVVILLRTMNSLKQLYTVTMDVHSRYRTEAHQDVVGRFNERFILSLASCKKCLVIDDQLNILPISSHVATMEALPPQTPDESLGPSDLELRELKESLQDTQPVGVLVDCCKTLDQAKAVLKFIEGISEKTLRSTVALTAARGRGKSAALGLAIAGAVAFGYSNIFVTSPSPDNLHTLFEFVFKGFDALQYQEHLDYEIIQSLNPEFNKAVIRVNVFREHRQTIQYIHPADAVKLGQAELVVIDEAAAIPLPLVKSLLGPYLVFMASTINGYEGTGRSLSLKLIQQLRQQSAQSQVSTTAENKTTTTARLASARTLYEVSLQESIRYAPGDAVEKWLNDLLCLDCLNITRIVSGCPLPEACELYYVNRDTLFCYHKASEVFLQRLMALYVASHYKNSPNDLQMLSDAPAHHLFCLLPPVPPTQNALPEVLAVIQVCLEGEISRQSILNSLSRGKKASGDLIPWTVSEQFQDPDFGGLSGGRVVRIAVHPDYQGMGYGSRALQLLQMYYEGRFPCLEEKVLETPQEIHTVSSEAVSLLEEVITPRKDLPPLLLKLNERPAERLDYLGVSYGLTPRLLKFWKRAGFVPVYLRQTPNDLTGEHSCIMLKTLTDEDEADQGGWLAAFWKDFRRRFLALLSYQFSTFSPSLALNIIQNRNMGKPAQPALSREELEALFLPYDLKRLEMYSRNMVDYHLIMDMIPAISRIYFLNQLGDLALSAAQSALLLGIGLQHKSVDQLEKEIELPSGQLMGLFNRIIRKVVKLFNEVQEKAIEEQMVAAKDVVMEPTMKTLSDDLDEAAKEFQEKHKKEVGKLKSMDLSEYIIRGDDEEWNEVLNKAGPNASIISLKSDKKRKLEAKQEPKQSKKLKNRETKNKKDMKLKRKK
Nature of the assay: pull-down.

The target of assay [2] is T2, MBP-tagged NAT10 CTD (541-1025 AA) (UniProt Q9H0A0 541-1025).
T2 sequence (looked up): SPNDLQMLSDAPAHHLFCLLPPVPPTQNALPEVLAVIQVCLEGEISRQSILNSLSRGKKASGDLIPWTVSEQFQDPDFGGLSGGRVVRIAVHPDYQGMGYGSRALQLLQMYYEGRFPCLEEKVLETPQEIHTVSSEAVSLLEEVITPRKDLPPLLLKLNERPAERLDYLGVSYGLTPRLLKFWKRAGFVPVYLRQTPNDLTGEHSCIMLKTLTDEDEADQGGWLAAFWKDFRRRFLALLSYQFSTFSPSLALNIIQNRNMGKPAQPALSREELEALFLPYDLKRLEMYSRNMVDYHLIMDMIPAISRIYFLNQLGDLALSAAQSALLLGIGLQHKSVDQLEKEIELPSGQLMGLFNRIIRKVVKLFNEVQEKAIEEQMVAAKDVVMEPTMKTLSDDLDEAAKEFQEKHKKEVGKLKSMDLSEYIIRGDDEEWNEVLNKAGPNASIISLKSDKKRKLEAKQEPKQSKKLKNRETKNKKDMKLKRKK
Put plainly: pull-down.

B1: GST-fused full-length RNase H1 (enzyme, human, UniProt O60930 1-286, looked up)
chain: MSWLLFLAHRVALAALPCRRGSRGFGMFYAVRRGRKTGVFLTWNECRAQVDRFPAARFKKFATEDEAWAFVRKSASPEVSEGHENQHGQESEAKASKRLREPLDGDGHESAEPYAKHMKPSVEPAPPVSRDTFSYMGDFVVVYTDGCCSSNGRRRPRAGIGVYWGPGHPLNVGIRLPGRQTNQRAEIHAACKAIEQAKTQNINKLVLYTDSMFTINGITNWVQGWKKNGWKTSAGKEVINKEDFVALERLTQGMDIQWMHVPGHSGFIGNEEADRLAREGAKQSED
For B1, the binding result in assay [1] and in assay [2] was “binds” throughout.
